Measured values as given in patent US20210163601A1 (Amgen, published 2021).
Substitutions are numbered along the chain they refer to.

T1: Soluble ASGR-1 (recombinant, biotinylated) (human, UniProt P07306 62-291, limits assumed, biotinylated)
T1 construct: also called recombinant, soluble ASGR-1 biotinylated protein
T1 sequence: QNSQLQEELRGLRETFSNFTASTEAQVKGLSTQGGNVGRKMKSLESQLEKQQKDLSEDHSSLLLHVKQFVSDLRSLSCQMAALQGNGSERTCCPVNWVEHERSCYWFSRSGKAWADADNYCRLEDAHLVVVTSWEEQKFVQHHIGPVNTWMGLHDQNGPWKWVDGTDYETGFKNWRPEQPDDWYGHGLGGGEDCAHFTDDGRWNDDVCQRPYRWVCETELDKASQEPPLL

B1: 4H6 (antibody, V domains shown)
VH: QVQLVQSGAEVKKPGASVKVSCKASGYTFTDYYLHWVRQAPGQGLEWMGWIHPNSGGTNYAQKFQGRVTMTRDTSISTAYMGLSSLRSDDTAVYYCARDGTSSFDYWGQGTLVTVSS
VL: DIQMTQSPSSVSASVGDRVTITCRASQGISRWLAWYQQKPGKAPKLLIYGASSLQSGVPSRFSGSGSGTDFTLTISSLQPEDFAIYYCQQANSFPFTFGPGTKVDIK
notes: Tested as hybridoma supernatant
B2: 56E5 (antibody, V domains shown)
VH: QVQLVQSGAEVKKPGASVKVSCQASGYTFTGYHMHWVRQAPGQGLEWMGWINPNNNATNYAQKFQGRVTMTRDTSISTAYMELRRLRSDDTAVYHCARDGTSSFDYWGQGTLVTVSS
VL: B1 VL with S30R, R31K, G50A, I85T
notes: as for B1
B3: 72G9 (antibody, V domains shown)
VH: EVQLVESGGGLVKPGGSLRLSCAASGFTFSSYSMNWVRQAPGKGLEWVSSISGSSSYIYYADSVKGRFTISRDNAKNSLYLQMNSLRAEDTAVYFCARGGSRGFDPWGQGTLVTVSS
VL: B1 VL with V11L, G28S, S30T, R31S, W32Y, A34N, G50T, I85T, A91S, N92H
notes: as for B1
B4: 4B1 (antibody, V domains shown)
VH: QVQLQESGPGLVKPSETLSLTCSVSGDSISSYSWSWIRQPAGKGLEWIGRIYTSGSTNYIPSLKSRITMSVDTSKKQFSLKLSSVTAADTAVYYCARDLKSSGCLFFDYWGQGTLVTVSS
VL: DIQMTQSPSSLSASVGDRVTITCRASHTIRTYLNWYQQKPGKAPKLLIYAASSLQSGVPSRINGSGSGTDFTLTITNLQPEDFATYYCQQSYNISFTFGPGTKVDIK
notes: as for B1
B5: 218G4 (antibody, V domains shown)
VH: QVQLVESGGGVVQPGRSLRLSCAASGFTFSSYGLHWVRQAPGKGLEWVAVIWYDGSNKYYADSVKGRFTISRDNSKNTLYLQMNSLRVEDTAVYYCANWYYYYYGMDVWGQGTTVTVSS
VL: QSVLTQPPSVSAAPGQKVTISCSGSSSNIGNNYVSWYQQLPGTAPKLLLYDSNKRPSGIPARFSGSKSGTSATLGITGLQTGDEADYYCGTWDSSLNTVVFGGGTKLTVL
notes: as for B1
B6: 6G7 (antibody, V domains shown)
VH: QVQLVESGGGVVQPGRSLRLSCAASGFTFSSYGMHWVRQTPGKGLEWVAIISYVGKNKYYADSVKGRFTISRDNSKNTLYLQMNSLRAEDTAVYYCARRGNSYGGYGMDVWGQGTTVTVSS
VL: DIQMTQSPSSRSASVGDRVTITCQASQDISNYLNWCQQKPGKALKLLIYDASTLETGVPSRFSGSGSGTDFTFTISSVQPEDIATYYCQQYDNVPITFGQGTRLEIK
notes: as for B1
B7: 54E9 (antibody, V domains shown)
VH: QVQLVQSGAEVKKPGASVKVSCKASGYTFNSYGISWVRLAPGQGLEWMGWISAYNGNTKNAQKLQGRVTMTTDTSTSTAYMELRSLRSDDTAVYYCARHDFWSGYYKGMDVWGQGTTVTVSS
VL: not shown
notes: as for B1
B8: 4A2 (antibody, V domains shown)
VH: QVQLVQSGTEVKKPGASVKVSCKASGYTFTNYDINWVRQATGQGLEWMGWMHPNSGNTGYAQKFQGRVTLTRNTSISTAYMELSSLRSEDTAVYYCASSSGWYYFDYWGQGTLVTVSS
VL: DIVMTQSPDSLAVSLGERATINCKSSQSILHSSNNNNYLAWFQQKPGQPPKLLLYWASTRESGVPDRFSGSGSGTDFTLTISSLQPEDVAVYYCQQYYNTPVTFGPGTKVGIK
notes: as for B1
B9: 75G3 (antibody, V domains shown)
VH: QVQLQQWGAGLLKPSETLSLTCAVYGGSLSGSYWSWIRQPPGKGLEWIGEINLSGSTNYNPSLKSRVTISVDTSKSQFSLTLRSVTAADTAVYYCARDYGGLDYWGQGTLVTVSS
VL: EIVLTQSPGTLSLSPGERATLSCRARQNVDSSYLAWYQQKPGQAPRLLIYGASSRATGIPDRFSGSGSGTDFTLTISRLEPEDFAVFYCQQYERSPWTFGQGTKVEIK
notes: as for B1

Molecular target: T1, Soluble ASGR-1 (recombinant, …)
Assay: limiting antigen bead FACS; biotinylated soluble ASGR-1 coated at 2.5 ng/mL on LumAvidin beads;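 also: hybridoma supernatants of ligand-competing antibodies bound to antigen-loaded beads, read by flow cytometry on an iQue Screener in calcium-containing buffer, higher fluorescence meaning stronger relative affinity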

Row | FACS Geomean | Binder
1 | 2990 | B1
2 | 22600 | B2
3 | 34000 | B3
4 | 10100 | B4
5 | 15100 | B5
6 | 2290 | B6
7 | 6490 | B7
8 | 16600 | B8
9 | 35800 | B9
